From patent US20120288511A1 (INDIANA UNIVERSITY RESEARCH AND TECHNOLOGY, published 2012) come the findings set out here.

Like-named read-outs stand apart in the source and are kept apart here. Non-standard residues stand in square brackets, D forms with d. No end group written: not given here. Aib = CC(C)(N)C(=O)O

Common to all, as to assay: cell-based or functional assay
The target of test [1] is T1, GLP-1 receptor (human, UniProt P43220 24-463).
Test [2] deals with T2, glucagon receptor (human, UniProt P47871 26-477).
T2 sequence (P47871 26-477): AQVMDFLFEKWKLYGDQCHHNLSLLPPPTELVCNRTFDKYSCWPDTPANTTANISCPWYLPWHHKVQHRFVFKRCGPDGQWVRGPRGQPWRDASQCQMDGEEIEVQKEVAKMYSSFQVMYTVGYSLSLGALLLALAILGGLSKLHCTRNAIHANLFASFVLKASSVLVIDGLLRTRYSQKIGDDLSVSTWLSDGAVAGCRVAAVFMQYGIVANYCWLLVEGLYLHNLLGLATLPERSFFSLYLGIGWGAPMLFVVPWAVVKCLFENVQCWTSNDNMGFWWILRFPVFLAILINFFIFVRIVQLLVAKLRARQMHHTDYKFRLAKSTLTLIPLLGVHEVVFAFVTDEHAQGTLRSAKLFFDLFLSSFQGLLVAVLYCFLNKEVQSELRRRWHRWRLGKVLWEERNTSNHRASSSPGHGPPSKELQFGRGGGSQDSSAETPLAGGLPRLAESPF
For test [3], the target named is T1, GLP-1 receptor. This is another data set of the same source.
In test [4] the target is T2, glucagon receptor. The source holds these as a separate data set.
For test [5], the target named is T1, GLP-1 receptor. The source holds these as a separate data set.
The target of test [6] is T2, glucagon receptor. This is another data set of the same source.
Test [7] has as its target T1, GLP-1 receptor. The source holds these as a separate data set.
The target in test [8] is T2, glucagon receptor. This is another data set of the same source.
In test [9] the target is T1, GLP-1 receptor. The source holds these as a separate data set.
Test [10] concerns the target T2, glucagon receptor. The source holds these as a separate data set.
Test [11] addresses T1, GLP-1 receptor. This is another data set of the same source.
The target in test [12] is T2, glucagon receptor. The source holds these as a separate data set.
In test [13] the target is T1, GLP-1 receptor. The source holds these as a separate data set.
The target of test [14] is T2, glucagon receptor. The source holds these as a separate data set.

Regarding HSQGTFTSDYSKYLDEEAVRLFIEWLMNT-NH2 (not fully specified (residue 2)) [Glucagon Analog A], the entries for the “EC50 (cAMP luciferase reporter)” value with GLP-1 receptor [1] and with glucagon receptor [2] were 0.009 nM and 0.061 nM, respectively.

B1: Glucagon Analog 20 (peptide)
peptide: HSQGTFTSDYSKYLDEKRAKEFVQWLMNT-NH2
modifications: also: DPP-IV-protecting residue at position 1 or 2: D-Ser, Aib or Dmia, salt bridge Lys17/Glu21 plus salt bridge 16/20 or α,α-disubstituted residue at 16
In the case of B1, the “EC50 (cAMP luciferase reporter)” value in the test with GLP-1 receptor [3] amounted to 0.284 nM; with glucagon receptor [4], 0.054 nM; with GLP-1 receptor [5], 0.284 nM; with glucagon receptor [6] it was 0.054 nM.

As to H[Aib]QGTFTSDYSKYLDEEAVRLFIEWLMNT-NH2 [Glucagon Analog C], the “EC50 (cAMP luciferase reporter)” value in the test with GLP-1 receptor [1] stood at 0.006 nM; with glucagon receptor [2] it was 0.17 nM.

B2: Glucagon Analog 29 (peptide)
peptide: HSQGTFTSDKSKYLDERAAQDFVC(PEG 40 kDa)WLLDT-NH2
modifications: not fully specified (residue 10); also: Lys10 acylated, acyl group not given here
For B2, the “EC50 (cAMP luciferase reporter)” value with GLP-1 receptor [7] came to 0.084 nM; with glucagon receptor [8], 0.085 nM; with GLP-1 receptor [9] it was 0.084 nM; with glucagon receptor [10], 0.085 nM; in the test with GLP-1 receptor [5], 0.084 nM; with glucagon receptor [6], 0.085 nM. For the same molecule, the “% Relative Activity vs native GLP-1” value with GLP-1 receptor [9] came out at 43%. In addition, the “% Relative Activity vs native glucagon” value with glucagon receptor [10] was found to be 40%. The “percent in parentheses (not explained)” value with GLP-1 receptor [5] amounted to 16%; in the test with glucagon receptor [6], 74%.

As for HSQGTFTSDYSKYLDKRRAEDFVQWLMNT (not fully specified; also: further groups not given here) [Peptide 3], the “EC50 (cAMP luciferase reporter)” value with GLP-1 receptor [11] was 1.15 nM; with glucagon receptor [12], 0.34 nM.

For KAHSEGTFTSDYSKYLDSRRAQDFVQWLMNT (not fully specified; also: further groups not given here) [Peptide 12], the “EC50 (cAMP luciferase reporter)” value is 41.7 nM in the test with GLP-1 receptor [11] and 85.9 nM with glucagon receptor [12].

Take KAHSEGTFTSDYSKYLDSRRAQDFVQWLMNT (not fully specified; also: further groups not given here) [Peptide 13]: the “EC50 (cAMP luciferase reporter)” value in the test with GLP-1 receptor [11] amounted to 14.3 nM; in the test with glucagon receptor [12], 30.7 nM.

For the molecule HSQGTFTSDKSKYLDERAAQDFVQWLLDT-NH2 (not fully specified; also: position 2 Aib or D-Ser) [Glucagon Analog 51], the “% Relative Activity vs native GLP-1” value with GLP-1 receptor [13] and with GLP-1 receptor [9] was 949% throughout. The “EC50 (cAMP luciferase reporter)” value is 0.0039 nM in the test with GLP-1 receptor [13]; 0.0035 nM in the test with glucagon receptor [14]; 0.0039 nM with GLP-1 receptor [7]; 0.0035 nM with glucagon receptor [8]; 0.004 nM with GLP-1 receptor [9]; 0.004 nM with glucagon receptor [10]. In addition, the “% Relative Activity vs native glucagon” value with glucagon receptor [14] and with glucagon receptor [10] was 314% in each case.

For the molecule HSQKTFTEDYSKYLDSRRAQDFVQWLMNT (not fully specified; also: further groups not given here) [Peptide 17], the results for the “EC50 (cAMP luciferase reporter)” value in the test with GLP-1 receptor [11] and in the test with glucagon receptor [12] were 148 nM and 862 nM, respectively.

Consider H[Aib]QGTFTSDYSKYLDEQAAKEFIAWLMNT-NH2 [Glucagon Analog D], for which the “EC50 (cAMP luciferase reporter)” value was 0.02 nM with GLP-1 receptor [1] and 0.85 nM with glucagon receptor [2].

B3: Glucagon Analog 24 (peptide)
peptide: HSQGTFTSDYSKYLDEKRAKEFVC(PEG 40 kDa)WLMNT-NH2
modifications: also: DPP-IV-protecting residue at position 1 or 2 not given here, non-covalent salt bridge Lys17/Glu21
Consider B3, for which, in the test with GLP-1 receptor [3], the “% Relative Activity vs native GLP-1” value was 5% and the “EC50 (cAMP luciferase reporter)” value was 1.58 nM. In the test with glucagon receptor [4], the “% Relative Activity vs native glucagon” value amounted to 7% and the “EC50 (cAMP luciferase reporter)” value was 0.676 nM.

For the molecule HSQGTFTSDYSKYLDEQAAKEFIAWLMNT-NH2 (not fully specified (residue 2)) [Glucagon Analog B], the “EC50 (cAMP luciferase reporter)” value came to 0.014 nM with GLP-1 receptor [1] and 0.072 nM with glucagon receptor [2].

For HAQGTFTSDKSKYLDERAAQDFVCWLLDT (not fully specified (C-terminus)) [Glucagon Analog 59], in the test with GLP-1 receptor [9], the “% Relative Activity vs native GLP-1” value stood at 484% and the “EC50 (cAMP luciferase reporter)” value is 0.019 nM. Also, in the test with glucagon receptor [10], the “% Relative Activity vs native glucagon” value stood at 490% and the “EC50 (cAMP luciferase reporter)” value came out at 0.01 nM.
